Data on 19 sequences can be found in the DeepSol protein solubility set.

The nature of this data set: soluble on expression in E. coli; label from the status in PepcDB or PDB records.
Regarding “MSLTGTDFHVGIVGLGSMGMGAARSCLRAGLSTWGADLNPQACANLLAEGACGAAASAREFAGVVDALVILVVNAAQVRQVLFGEDGVAHLMKPGSAVMVSSTISSADAQEIAAALTALNLNMLDAPVSGGAVKAAQGEMTVMASGSEAAFTRLKPVLDAVASNVYRISDTPGAGSTVKIIHQLLAGVHIAAAAEAMALAARAGIPLDVMYDVVTHAAGNSWMFENRMQHVVDGDYTPRSAVDIFVKDLGLVADTAKALRFPLPLASTALNMFTSASNAGYGKEDDSAVIKIFSGITLPGVTPEEGHHHHHH”, the “soluble on expression in E. coli” value is “soluble”. As for “MGSDKIHHHHHHMTASLLTFAKGGVHPPESKEITEHLAIEKMPLPAQVEIPLLQHFGAPCQPLVNKKDRVEEGDLIGQVQGLGANVHASITGTVTNVGTSIGPTSLNIPSVTIDRDTEAPDKIYTPSDWRGLSPQELLQKIKDGGIVGIGGAGFPAHVKLSPPPDAKVDTLVLNGAECEPYLTCDHRVMLEKPEEVVEGAKILLHVLGIKDCYIGVESNKNDAIDALRKTIEQQKLDGVKIQVSPLKVKYPQGSEKQLIESTTGRKVPGGGLPFDVGVIVQNVGTAKAVFDAVVLNKPLYEKVITISGRGISRPANLQVRIGTRIRDIVEYLGGTKADLAKIVMGGPMMGFAVSSLDIPVTKTCSGILFLTRDEIDEQPYGPCIRCGWCVEACPMGLSPNEIGLYVEAGRAADTAPFGVFDCFECGSCAFVCPAKRPLVQFIRLAKQKARK”, the “soluble on expression in E. coli” value was “not soluble”.

Consider “MNKTWWKEAVAYQIYPRSFMDSNGDGIGDLQGIIAKLDYLKDLGIDVIWICPMYKSPNDDNGYDISDYQDIMDEFGTMEDFDALLDEVHKRDMKLIIDLVINHTSDEHPWFIESRSSKDNPKRDWYIWHDGKDGAEPNNWESIFNGSAWEYDEVTGQYYLHLFSRKQPDLNWENKEVREVLYDTVNWWLDKGIDGFRVDAISHIKKEDGFKDMPNPKGLKYVPSFDKHMNVDGIQPLLEELKENTFSKYDIMTVGEANGVKIEDAELWVGEEQGKFNMVFQFEHLSLWDAEKKKDLDVVGLKKVLTKWQKGLENKGWNALYIENHDKPRIVSTWGDDKQYWRESATALGAMYFFMHGTPFIYQGQEIGMTNVQFPNIEDYDDVAIKNLYREKIAEGVSHQDMMEIIWASCRDNSRTPMHWDDEINAGFTTGTPWFGMNQNYKEINVAKQKNEENSIFNFYKKMIALKKEHDVLNYGTYDLLLEDDPQIYAYTRTLNDEKIVVISNISKEEAVYNEDLFALERKRLLLNNYEVAEHEQLTTITLKPYETRVYRIS”, for which the “soluble on expression in E. coli” value was “not soluble”. For “SLSLRPSPRLLCTATKQKNSGQNLEEDMGQSEQKADPPATEKTLLEEKVKLEEQLKETVEKYKRALADTENLRQRSQKLVEEAKLYGIQAFCKDLLEVADVLEKATQCVPKEEIKDDNPHLKNLYEGLVMTEVQIQKVFTKHGLLKLNPVGAKFDPYEHEALFHTPVEGKEPGTVALVSKVGYKLHGRTLRPALVGVVKEA”, the “soluble on expression in E. coli” value is given as “soluble”. “GSMAWHLGIRSQSRPNDIMAEVCRAIKQLDYEWKVVNPYYLRVRRKNPVTSTFSKMSLQLYQVDSRTYLLDFRSIDDEITEAKSGTATPQRSGSISNYRSCQRSDSDAEAQGKPSEVSLTSSVTSLDSSPVDVAPRPGSHTIEFFEMCANLIKILAQ”: the “soluble on expression in E. coli” value was “soluble”. Under “MNYFNVGKIVNTQGLQGEMRVLSVTDFAEERFKKGAELVLFDEKDQFVQTVTIASHRKQKNFDIIKFKDMYHINTIEKYKGYSLKVAEEDLNDLDDGEFYYHEIIGLEVYEGDSLVGTIKEILQPGANDVWVVKRKGKRDLLLPYIPPVVLNVDIPSKRVDVEILEGLDDEDLEHHHHHH” stands “soluble”. Under “MGSDKIHHHHHHKEKKADTYVTKVTDLTGEEEQVLKLEYDRDGKIIKYGDTPVRYEGDQITIGQMNCLNTGNKLCNVTFQIGKGKARESRARCMLKVGEEVYEADKQTVYDYKGDTIFINSDYRATSDYRFLKKVQGKYVFDQLGRLKEVMTVFTEANDSVSSCHTYYNYDNNINYQANLNLQAYVIDYDGVDSFFYFLLNLGQLRNRTALPNDIGYCMNHGLSTYNVHANYRLDDENPVRIEVLYNYTKLLSRIDLSYNPLN” stands “not soluble”; under “MNSQQDLTMHNRSAAILLRPAAALYGMVMSLRNCLYDQGIFKSWHSPIPVVSVGNITTGGTGKTPLVDWIVKFYEASGIATAIVSRGYGRRTKGVQLVSDGGRLLLGSRDAGDETAMLAARNPRTIVVVAEKRVEGVQFLMHQFADRLPGVIVLDDAFQHRKIARDLDIVVVNAGAPEEIDAMLPAGRLREPLRGLRRAHLIILGKITDDANSATLLQTLRETGKPVIRSKIKPGKLIHVDGSENETNESVKTLAFAGIGAPEGFLHSLKTAGIKIAATKFFRDHEPYTESAIRSIIGEAKRQGLVPVTTEKDWFRIADEPELAEMLRQVGCRYLTITPEFPDGTQELERQLLDVLKRLEHHHHHH”, “not soluble”; under “MAKEFQLTHIFKKVSEFKDGECRCGPLEEHFNVEWLLYINRKDDELAVFLGCNSLQGTEETTLSIYVELKFTLKNSIGTRVTKIAKCLLSNKSTESDFGLNKFIGWETLLKDYLIDDSIIIEAKIKITKMTGFPRKELRSFDESSEEYSDMIIAVGDRKFYVLKQLLASNSTHFQSLIPLDFEEMDCEGKSEITLPDINPSDFQCLLEVLYGEPAMDDENVEGILHSAHMYKMTKVIRNCEEFLSNKSEKPMRDKFKIAKQYQLESLKKSCLSKIQTIQDIKSAMAGDLSDMDATVVAALLEKSVTIEPPSKNGRPY”, “soluble”. Regarding “MRKAHIMGIEGVGMSALARLLMAEGVAVTGCDLAPGPRARRLGVPVHHGHDPGHLADEDTLVVPTPVPPDHPEVVEARKRGLRVLRRMELLAHFLAQRPSAGVTGTHGKTTTTGMLAAILLEAGLDPWVFLGGELALLPGNARPGRGPRVAEVDESDPLFREVRVSVAVATNLEADHVAPRGERAPNYHESLEALKEAMRGFLAGAKTVVVPAMDPGLLALTEGLPRRLFGPGGEVWAEAVDLSPSGASFRLVHREGPLGEVHLRVPGRHNVHNALAAALAALALGASPEAISRGLSRFPGVGRRFERVGEVGGAWVVDDYAHHPTEVQATLEAALLSGRRVRVFFQPHRLLRTQELWEAFAQALKGAHEVVVLPVYTAGERGRESPEALSDRIAKRLEDLGRPARRMDKEEALAYARATARPEDLLLFMGAGDVTLLARRLVHEG”, the “soluble on expression in E. coli” value is given as “soluble”.

Consider “MTPPADETRLFECVTCGGVGIGDNRPTCCGEPMAATETGDTAVSEPSLETLLKTVFDMSGTELDICLCVMEGGELTVAALAEQIGYDRSVVARHLNHLAAFGVVEKRRRIRPEGGHVYVYTPQPPEVVRERLREEFLSWVRLATAQLDDLQREKVEAIADAKTDERQWTVFQEQ”, for which the “soluble on expression in E. coli” value was “not soluble”. “MSLTLTLTGTGGAQGVPAWGCECAACARARRSPQYRRQPCSGVVKFNDAITLIDAGLHDLADRWSPGSFQQFLLTHYHMDHVQGLFPLRWGVGDPIPVYGPPDEQGCDDLFKHPGLLDFSHTVEPFVVFDLQGLQVTPLPLNHSKLTFGYLLETAHSRVAWLSDTAGLPEKTLKFLRNNQPQVMVMDCSHPPRADAPRNHCDLNTVLALNQVIRSPRVILTHISHQFDAWLMENALPSGFEVGFDGMEIGVALEHHHHHH”: the “soluble on expression in E. coli” value was “soluble”. As for “MKSQLRKKTLEALSALSNEDILQKTERMYKYLFSLPEWQNAGTIAVTISRGLEIPTRPVIEQAWEEGKQVCIPKCHPDTKKMQFRTYQTDDQLETVYAGLLEPVIEKTKEVNPSQIDLMIVPGVCFDVNGFRVGFGGGYYDRYLSEYEGKTVSLLLECQLFAHVPRLPHDIPVHKLITEDRIISCFSLEHHHHHH”, the “soluble on expression in E. coli” value was “soluble”.

Consider “MACPEATFFHRAGWKQVIEQAFGHKTWFLYIEEGGCIQGVLPLAEIDSLLFGHSLSALPFCVYGGIAAISDDARIRLDQAAQMLATYLKVDYLEYRHLHPFHHDWPTKDLYVTFRKTMDSDVEQNMLAIPRKQRAMVRKGMKYELQSYLDQDTDHFFRAYSASVHRLGTPVFSRKYFRLLKSVFAEDCELLIITKDENVVSAVMSFYFRDEVLPYYGGGTDAARDLAGNDFMYWELMRRACERGYRVFDFGRSKRGTGSYSFKKNWGFEPQPLFYEYQLHQAKTIPEHNPLNPKYQLFIKAWQKMPLALANMLGPHIVKNLG”, for which the “soluble on expression in E. coli” value is given as “not soluble”. The value for “MAHHHHHHMRRWGAAGPLRSGLQLRQVASAARRRQPAQLKIPISDAPAHVKAMERPRSKLETPAAYSSFRSTETIEEFRENYKYLAAGERETSVTARVAGRITSLRDMGKMLFATVRSSGVDLQLVVHVGEHFTRDCLKQLRASLRVGDIVGAEGIPCRMQRGELSLAASRVEVLAPYVCRDQVVCPDLRGFTQLQDNDVRYRYRFVDMMTNRSVIDTIRKRHTVLQSLREYLDMRHFVEVETPILHTVASGANAKPFVTHHNANNADLFLRVAPELYLKQCVVGGLERVYEIGKVFRNEDADRSHNPEFTTCEFYAAYHTYEDLITMTEDIFRHLALRANGTTQLQIQCERAGITREIDLGATFRRISVYDEIQSASGVELPPPNELNTPKGLAYMSAIMLRHDIQFPAVRTAAKMFDKLIDFFITSHIVEPTFVMDHPIFMSPLAKEHSSRPGLAERFELFINGIEYCNAYSELNDPQEQCHRFQQQLIDRQGGDEEAMPLDETFLKSLQVGLPPTAGWGMGIDRVVMLLSGSSTIRDGIIFPLLRQDTRSHDCKRRHRVATFFDFNHQMALLCLSGVEQEMKRRGFPEASCAHIRELRQTIRDLGQRSGESDLTNFNCGEWWPGLTKTMIRLMCGRPRS” was “not soluble”; that for “MGSSHHHHHHSSGLVPRGSHMGTASNGSTQQLPQTIIIGVRKGGTRALLEMLSLHPDVAAAENEVHFFDWEEHYSQGLGWYLTQMPFSSPHQLTVEKTPAYFTSPKVPERIHSMNPTIRLLLILRDPSERVLSDYTQVLYNHLQKHKPYPPIEDLLMRDGRLNLDYKALNRSLYHAHMLNWLRFFPLGHIHIVDGDRLIRDPFPEIQKVERFLKLSPQINASNFYFNKTKGFYCLRDSGKDRCLHESKGRAHPQVDPKLLDKLHEYFHEPNKKFFKLVGRTFDWH” was “soluble”. For “MGSDKIHHHHHHMTIYTLSHGSLKLDVSDQGGVIEGFWRDTTPLLRPGKKSGVATDASCFPLVPFANRVSGNRFVWQGREYQLQPNVEWDAHYLHGDGWLGEWQCVSHSDDSLCLVYEHRSGVYHYRVSQAFHLTADTLTVTLSVTNQGAETLPFGTGWHPYFPLSPQTRIQAQASGYWLEREQWLAGEFCEQLPQELDFNQPAPLPRQWVNNGFAGWNGQARIEQPQEGYAIIMETTPPAPCYFIFVSDPAFDKGYAFDFFCLEPMSHAPDDHHRPEGGDLIALAPGESTTSEMSLRVEWL”, the “soluble on expression in E. coli” value is “not soluble”.

Consider “MGLFLEDLAVGDRFDSARHRVEAAAIKAFAGEFDPQPFHLDEEAARHSLFGGLAASGWHTAAITMRLLVTSGLPLAQGIIGAGTELSWPNPTRPGDELHVETTVLAITPSKSRPDRAIVTCQSDTLNQRGEVVQRSTAKVVVFRRPLEHHHHHH”, for which the “soluble on expression in E. coli” value is listed as “soluble”.

Take “MGSDKIHHHHHHMSWHNKVVWNEGLFLLPQLFQQQERYFEYFAHKRAAVLSPFFWGFSRYEIDQESLSFGKLVFKSGAGIFPDGTPFDVPGHTPPPPPLTIAAEHQDQVIYLAVPLRLPNTEETAFDEQAGSLARYSAFEIELRDSNAIGQGPKPVQLANMRLRLLPEKELTQSWIGIALTRVKTLHADGSVALYDGDHIPPVSQYGANPLLREWATQLHGLAKLRADALATRLSGSDGRAGAAAEVADYLLLQVLNRYEPLLEHICRIREMPPVTLYRELSMLAGELSTFVRPQTRRPRPTPGYDHAQLYASIRPLVDEVHYLLNQVLIRGAQPIPLTEQPHGIRVATMLPSELAGYSSLVLAVGAQMSPDVLQQQFASQTKISHPQRLPELIRSHLPGMTMIPLPVPPRQIPFNSSYIYYELSRTGPFWEQIAQQGGLAMHIAGHFPELKLELWGVRHK”: the “soluble on expression in E. coli” value is reported as “not soluble”.
